Test system: MS2 coat protein
Test: apparent KD of MS2 coat protein; higher = weaker reporter binding
Conditions: Eterna round: R107
How it was run: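 Designed RNA switches were transcribed on-chip from Illumina sequencing clusters and titrated with SNAP-549-labelled MS2 coat protein in twofold steps from 0.7 or 1.5 nM up to 3 µM. Each step lasted 0.8–1.5 h at first and 10–20 min by the end, in 100 mM Tris-HCl pH 7.5, 80 mM KCl and 4 mM MgCl2, without or with constant ligand. Apparent KD is the median, for each design, of fits to normalised cluster binding curves.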

[1] = input ligand: theophylline 20 uM
[2] = input ligand: theophylline 2 mM
[3] = input ligand: tryptophan 2.4 mM

Row | Sequence | apparent KD of MS2 coat protein (input ligand: arginine 13.2 mM) [nM] | apparent KD of MS2 coat protein (input ligand: none) [nM] | apparent KD of MS2 coat protein [1] [nM] | apparent KD of MS2 coat protein [2] [nM] | apparent KD of MS2 coat protein [3] [nM]
1 | GGUCGCCUACAUGGGUAGGCGAUUUUGGAAGGAGCGAGCGAGAGCUCAGGUAGGUCGCCAGCACAUGAGGAUCACCCAUGUUUUU [SSArg-A #25 Weakened 1st state] | 20.8 | 16.1 | 20.9 | 21.8 | 18.7
2 | GGUGGCGGGACUGAUACCAGCCACCACCGAUAGACCACAUGAGGAUCACCCAUGUUGGGUGGCCCUUGGCAGCAGUCUUGCGGCU [#1 Same State - Theophylline B Attempt #14 (HarryS)] | 46.8 | 797 | 523 | 163 | 739
3 | GGUGGCGGGACUGAUACCAGCCACCACCGAUAGACCACAUGAGGAUCACCCAUGUUGGGUGGCCCUUGGCAGCAGUCUUGCGUCG [#1 Same State - Theophylline B Attempt #16 (HarryS)] | 35.9 | 149 | 92.9 | 21 | 323
4 | GGUGGCGUGACGGAUACCAGCCACCACCGCAAGGCCACAUGAGGAUCACCCAUGUUGGGUGGCCCUUGGCAGCUGUCGUGCGGCG [#1 Same State - Theophylline B Attempt #20 (HarryS)] | 451 | 263 | 324 | 431 | 341
5 | GGUGGCGUGACGGAUACCAGCCACCGCCGCAAGGCCACAUGAGGAUCACCCAUGUUGGGUGGCCCUUGGCAGCUGUCGUGCGGCG [#1 Same State - Theophylline B Attempt #21 (HarryS)] | 121 |  | 464 |  | 378
6 | GGUUACUCUACGGCCGCCACUGUAAUGUAAAGAUACCUGUACAUGACAUGAGGAUCACCCAUGUGCAGGACCGGGUAGUGUAACC [Tryptophan B 19] | 50.6 | 61.6 | 93.6 | 70 | 19.8
7 | GUACAUGAGGAUCACCCAUGUAUAGUUGAAGGAGCGACCGGUGGGUCAGGUAGGUCGCAGCGCAUGGCGUCCACGCGUGUAUGCC [#1 Exclusion - Arginine A Attempt #29 (Inspired by Pi)] | 10.3 | 12.3 | 17.1 | 11.1 | 11.9
8 | GUACCGUAAACGGCCGCCACUGACAUGAGGAUCACCCAUGUGCUGGUGGUGCACAACCUCAGGUUCAGGACCGGGUUUCCGAGCU [theeternabot_exclusion_MS2_Trp_B_50] | 23 |  | 45.3 | 32.2 | 
9 | GUAGCUAUCGCGGCCGCCACUAAACCGGAAACGGAACAGUAGGAUCACCAUUGUGGCGAAAGCCAUAGGACCGGGCGAUAGCUAC [TryBS - Double Magnet system 2] | 601 | 502 | 830 | 1210 | 80
10 | GUAUGGAAACAUACUUGGGUAUCAUGAGAUACCAGUACAGAAAUGUACCCUUGGCAGCUCAAGCAUACAUGAGGAUCACCCAUGU [Ex Theophylline A 8] | 22.5 |  | 22.5 |  | 15.4
11 | GUCCUCAUGACGGCCGCCACUACACAUGAGGAUCACCCAUGUAAUGAUCCCUUAAAUGAUAAUAGUAGGACCGGGUCACUGUAAG [Same State Typptophan B GF12] | 119 |  | 569 | 743 | 
12 | GUCUCUGAGAGAAGGAGCGUGAAGACAUGAGGAUCACCCAUGUAGAGGCGCCGAAGGCGUUCGCAGGUAGGUCGCUCUCAGAGAC [#1 Same State - Arginine B Attempt #20 (HarryS)] | 15.2 | 15.5 | 23.8 | 17.5 | 18.4
13 | GUGCGGUUUGAUGAUACCAGAUGUGGUGGGAACAUGAGGAUCACCCAUGUUGUGAAACAGGUCCCUUGGCAGCAUGAGUGAGCUU [TheoB-ms2@32-1] | 97.3 | 103 | 255 | 290 | 55.5
14 | GUUGGAUUUUCGGCCGCCACUGAGAGAGUCAUGUGAACAUGAGGAUCACCCAUGUAAUAUAUAUACAGGACCGGGAGGGUUGUAA [4.L] | 35 | 14.6 | 26.3 | 18.6 | 13.5
15 | GUUUAAAGGUCGGCCGCCACUGUAGGAUGUGUUCUUUCACAUGAGGAUCACCCAUGUUGUUAUUAUAGGACCGGGAUUUUAGGAC [39MS split4] | 25.8 |  | 33.1 | 27.4 | 
16 | UAAACACAUGAGGAUCACCCAUGUCAUGAUACCAGUCAACAUGAGGACCCUUGGCAGCAUAAAAUGGGUAACAUGAGGAUCACCC [AstrosEXyTheA#2] | 46.2 |  | 78.4 |  | 51.5
17 | UAAACAUGAGGAUCACCCAUGUUGGAUGAAGGAGCGACCAGAGGGUCAGGUAGGUCGCAUCACAUGAGGAUCACCCAUGUCAUUU [DOUBLE!!! :-D #12] | 59.1 | 108 | 114 | 147 | 97.7

Reference: the supplement of paper PMC9170038
